Assay: yeast display, Sf9 membrane polyspecificity reagent, FACS + sequencing; frameworks hold sequencing errors
Outline: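 Galactose induction of a Saccharomyces cerevisiae BJ5465 synthetic nanobody display library ran 36–48 hours. The cells were then stained for 1 hour at 4 °C with 10% biotinylated, detergent-solubilized Sf9 membrane reagent, pulled down on streptavidin microbeads and FACS-sorted into low and high (top ~1%) gates on expression and reagent-binding fluorescence. Labels for polyreactivity follow the gate of origin.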
With “QLQLVESGGGLVQAGGSLRLSCASSGSNFQPYAMGWYRQAPGIERELVAAISRGGTTYYADSVKGRFTISRDNAKTTVYLQMNSLKPEDTAVYYCAADSYKPDGYRLRNDYWGQGTQVIVSS” the “polyreactivity (PSR sort gate)” value was “high polyreactivity”.
With “QVHIVESGGGLDQAGGSLRLSCAASGFTFNAYAMGWYRQAPGKERELVAAISGRGSSTYYADSVKGRFTISRDNAKNTVYLQMNSLKPEDTEVYYCATKFYYQYPYRGDYWGQGTEVTVSS” the “polyreactivity (PSR sort gate)” value was “high polyreactivity”.
In the case of “QVQLVDSGGGLVQAGGSLRLSCAASGSIFVKYAMGCYRQAPGKERELVAAISGSGGSTYYADSVKGRFTISRDNAKNTVSLQMNSLKPEDTAVYYCAADDYFYSGRYGFEFWGQGTQVTVSS”, the “polyreactivity (PSR sort gate)” value was “low polyreactivity”.
In the case of “QVQLVESGGGLVQAGGSLRLICAASGSTYYDYAMGWYRQAPGKERELVAGISRSGGSTYYADSVKGRFTISRDNAKNSVYLQMNSLKPEDTAVYYCAARNYRYLYRIEYWGQGTQVTVSS”, the “polyreactivity (PSR sort gate)” value was “high polyreactivity”.
With “QVQLVESGVGLVPAGGSLRLSCAASGSTFSANAMGWYRQAPGKERELVAAITYRGANTYYADSVKGRFTISRDNAKNTVYLQLNSLKPEDTAVYYCAAEYAYHHVGFGYWGQGTQVTVSS” the “polyreactivity (PSR sort gate)” value was “low polyreactivity”.
For “QVQLVESGGGLVQAGGSLRLSCAASGRIFFSYDMGWYTQAPGKERELVAAIDYIAGNTYYADSVKGRFTISRDNAKNTVYLQMNSLKPEDTAVYYCAADVLDWYDLLRDDYWGQGTQVTVSS”, the “polyreactivity (PSR sort gate)” value was “low polyreactivity”.
With “QVQLVESGGGLVQAGGSLRLSCAASGRIFPVYTMGWYRQAPGKERELVAAISGNGASTYYADSVKGRFTISRDNAKNTVYLQMNSLKPEDTAVYYCAAYFYYWGSTFVRYEYWGQGTQVTVSS” the “polyreactivity (PSR sort gate)” value was “high polyreactivity”.
For “QVQLVESGGLLVQGGVSLRLSCAASGSTLYIYAMGWYRQAPGKERELVAANTWSGGRTFYADSVKGRFTISRDNAKNTVSLQMNSLTPEDTAVYYCAARILSDKTGSRYYYWGQGTQVTVSS”, the “polyreactivity (PSR sort gate)” value was “high polyreactivity”.
In the case of “QVQLVESGGGLVQAGGSLRLSCAASGSTLQSYAMGWYRQAPGKERELVAGIRISGGNTRYADSVKGRFTISRDNAKNTVYLQMNSLKPEDTAVYYCAALTGFYNLRPYGYWGQGTQVTVSS”, the “polyreactivity (PSR sort gate)” value was “high polyreactivity”.
In the case of “QVQLVESGGGLVQAGGSLRLSCAASGRTFGYNAMGWYRQAPGKERELVAAINWSGASTYYADSVKGRFTISRDNAKNTVYLQMNSLKPEDTAVYYCAADYSYIYGFDYWGQGTQVTLSS”, the “polyreactivity (PSR sort gate)” value was “low polyreactivity”.
In the case of “QVQLVESGGGLVQAGGSLRLSSAASGFTFWSKAMGWYRQAPGKERELVAAISRGGSTYYADSVKGRFTITRDNAKNTVYLQMNSLKPEDTAVYYCAAVRLSRVYYWGQGTQVTVSS”, the “polyreactivity (PSR sort gate)” value was “high polyreactivity”.
In the case of “QVQLVESGGGLVQAGGSLRLSCGAYGRIFLFYDMGWYRQEPGKVRELVATISFRGGSTYYADSVKGRFTISRDNAKNTVYLQMNRLKPEDTAVYYCAKQNKRGYSTSAYYSWGQGTQVTVSS”, the “polyreactivity (PSR sort gate)” value was “low polyreactivity”.
In the case of “QVQLVESGGGLVQAGGSLRLSCASSGFTLVGYAMGWYRQAPGKERELVAAISYRGGSTYYADSVKGRFTISRDNAKNTVYLQMNSLKPEDNAVYYCAATYQGSSRSRGYWGQGTQVTVSS”, the “polyreactivity (PSR sort gate)” value was “high polyreactivity”.
With “QVQLVESCGGLVQAGCSLRLSCAASGRTFVWYAMGWNRQAPGKERELVAAITLSGGSTYYADSVKGRFTISRDNAKNTVFLQMNSLIPEDTAVYYCAADGTYRPEDYDYWGQGTQVTVSS” the “polyreactivity (PSR sort gate)” value was “low polyreactivity”.
In the case of “QVQLVESGGGLVQAGGSLRLSCAASGSTFSKYAMGWYRQAPGKERELVATISSTGSTNYADSVKGRFTISRDNAKNTVYLQMNSLKPEDTAVSYCNAGRRGRPYYKYYYWGQGTQVTVSS”, the “polyreactivity (PSR sort gate)” value was “high polyreactivity”.
In the case of “QVQLVESGGGLVQAGGSLRISCAASGSIFGYYAMGWYRQAPGKERELVAVITWNTGNTYYADSVKGRFTISRDNAKNTVYLQMNSLKPEDNAVYYCAADQTGWGDTYDYWGQGTQVTVSS”, the “polyreactivity (PSR sort gate)” value was “low polyreactivity”.
With “QVQLVESGGGLVQAGGSLRLSCAASGSTFPTKAMGWYRQAPGKERELVATITTRRSTYYADSVKGRFTISRDNAKNTVYLQMNSLKPEDTAVYYCNAEYVYLIFSVYLYDYDYWGQGTQVTVSS” the “polyreactivity (PSR sort gate)” value was “low polyreactivity”.
In the case of “QVQLVESGGGLVQAGGSLRLSCAASGSTFGYYTMGWYRQAPGKERELVAAISWSGGSTYYADSVKGRFTISRDNAKNTVYLQMNSLKPEDTAVYYCAALGYTYKYYSYYWGQGTQVTVSS”, the “polyreactivity (PSR sort gate)” value was “high polyreactivity”.
With “QVQLVETGGGLVQAGGSLRLSCAAYGSIFIGYAMGWYRQAPGKERELVAAISNSGGRTYYADSVKGRFTISRDNAKNTVYLQMNSLKPEDTEVYYCNVDYRIPYRMDYWGQGTQVTVSS” the “polyreactivity (PSR sort gate)” value was “high polyreactivity”.
With “QVQLVESGGGLVQAGGSIRLSCAASGSTFYLYAMGWSRPAPGKERELVATITNGGGTNYADSVKGRFTISRDNEKNTVYIQMNTLKPEDTAVYYCAATWYHRDGDYWGQGTQVTVSS” the “polyreactivity (PSR sort gate)” value was “low polyreactivity”.
In the case of “QVQLVESGGGLVQAGGSLRLSCAASGFTFYLYAMGWYRQAPGKERELVAAISSRGGTTYYADSVKGRFTISRDNAKNTVYLQMNSLKPEDTAVYYCNVARVYHIYDYWGQGTQVTVSS”, the “polyreactivity (PSR sort gate)” value was “high polyreactivity”.
For “QVQLVESGGGLVQAGGSLRLSCAASGRIFVRYTMGWYRQAPGKERELVAAITKRGGSTYYADSVKGRFTISRDNAKNTVYLQMNSLKPEDTAVYYCATDGLGYNRPQDEYWGLGTQVTVSS”, the “polyreactivity (PSR sort gate)” value was “high polyreactivity”.
For “QVQLVESGGGLVQAGGSLRLSCAASGRIFAYYAKGWYRQAPRKQRELVAAISSGGNTNYADSVKGRFTISRDNAKKTVYLQMNSLKPEDSAVYYCSAYHFSFGWIRVDDWGQGTQVTVSS”, the “polyreactivity (PSR sort gate)” value was “high polyreactivity”.
In the case of “QVQLVESGGGLVQAGGSLRLSCAASGSTFWVYTMGWYRQAPGKEREFVAAISSGVGSTHYADSVKGRFTLSRDNAKNTVYLNMNSLKPEDTAVYYCAAESYYVYLGWLEYWGQGTQVTVSS”, the “polyreactivity (PSR sort gate)” value was “high polyreactivity”.
In the case of “QVQLVESGGGLVQAGGSLRLSCAASGSTFVYYAMGWSRQAPGKERELVAAIKRSGTRTYYADSVKGRFTISRDNAKNTVYLQMNSLKPEDTAVYYCANAVQGKYGYWGQGTQVTVSS”, the “polyreactivity (PSR sort gate)” value was “high polyreactivity”.
For “QVQLVESGGGLVQAGGSLRLSCAASGSTFVYNAMGWYRQAPGKERELVAAISTGGSTYYADSVKGRFTISRDNAKNTVYLQMNSLKPEDNAVYYCAAKQRTTLYDYWGQGTQVTVSS”, the “polyreactivity (PSR sort gate)” value was “high polyreactivity”.
In the case of “QVQLVESGGGLVQAGGSLRLSCAASGLTFYEDVLGWYRQAPGKERELVAAISYSGGRTYYADSVQGRFTISRDNAKNTVYLQMNSLKPEDTAVYYSAAQSRYAGKFYYWGQGTQVTVSS”, the “polyreactivity (PSR sort gate)” value was “high polyreactivity”.
For “QDQLVESGGGLVQAGGSLRLSCAASGNNYWTNAMGWYRQAPGKERELVAAISWSGDSTYYADSVKGRFTISRDNAKNTVYLQLNSLKPEDTAVYYCAVLDVYRYRMDYWGQGTQVTVSS”, the “polyreactivity (PSR sort gate)” value was “low polyreactivity”.
With “QVQLVESGGGLVQAGGSLRLSCAASGRILSVYAMGWYRQAPGKERELDAGISKRGGRTYYADSVKGRFTISRDNAKNTVYLQMKSLTPEDTAVYYCAADYSSYWGRDYWGQGTQVTVSS” the “polyreactivity (PSR sort gate)” value was “high polyreactivity”.
In the case of “QVQLVESGGGLVQAGGSLLLSCPASGRIFTWYAMGWYRQAPGKERELVAAINYNGDDTYYADSVKGRFTISRDNAKNTVYLQMNSLKPEDTAVYYCAAEGSRPPYDYWGQGTQVTVSS”, the “polyreactivity (PSR sort gate)” value was “high polyreactivity”.
In the case of “QVKLVESAGCLVQAGGSLRLSCAASGRIFRRYAMGWYRQSTGKESELVAAISSRGGLTYYADSVKGRFTISRDNAKNTVYLLMNSLKTEDTAVYYCAAYYFVTETYGPYEYWGQGTQVTVSS”, the “polyreactivity (PSR sort gate)” value was “high polyreactivity”.
For “QVQLVESGGGLVQAGGSLRLSCASSGSTFVSYVMGWYRQAPGKERELVARITISSGSTRYADSVKGRFTISRDNAKNTVYLQMNSLKPEDTAVSYCAVDAVDAFVFLSWDYDYWGQGTQVTVSS”, the “polyreactivity (PSR sort gate)” value was “low polyreactivity”.
For “QVQLVESGGGLVQAGGSLRLSCAASGSTFKVYTMGWYRPAPGKERELVAAISGGGGSTYYADSVKGRFTISRDNAKNTVYLQMNSLNPEDTAVYYCAAQKRGPGYPYYYWGQGTQVTVSS”, the “polyreactivity (PSR sort gate)” value was “high polyreactivity”.
In the case of “QVQLVESGGGLVQAGGSLRLSCAASGRIFARYTMGWYRQAPGKERDLVAAISRGGGTNYADSVKGRFTISRDNAKNTVYLQMNSLKPEDTAVSYCAADVSLVYPYSYRYYYWGQGTQVTVSS”, the “polyreactivity (PSR sort gate)” value was “low polyreactivity”.
With “QVQLVESVGGLLQAGGSLRVSCAASGFTFYRYAMGWYRQAPGKERELVAAITRGGSTNYADSVKRRFTISRDNAKKTVYLQMNSLKPEDTAVYYCAVVSQRTPLRGDYWGQGTQVTVSS” the “polyreactivity (PSR sort gate)” value was “high polyreactivity”.
In the case of “QVQQVESGGGLVQAGGSLRLSWAASGRIFVINGMGWYRQAPGKERELVAGISSGGTTYADSVKGRFTISRDNAKNTVYLQMNSLKPEDTEVYYCAARGRYQPQFDYWGQGTQVTVSS”, the “polyreactivity (PSR sort gate)” value was “high polyreactivity”.
For “QVQLVESGGGLVQAGGSLRLSCAASGRIFFDYAMGWYRQAPGKERELVADIDWSGGITYYADSVKGRFTISRDNAKNTVYLQMNSLIPEDTAVYYCAADFDELYPTTAYGEFEYWGQGTQVTVSS”, the “polyreactivity (PSR sort gate)” value was “high polyreactivity”.
For “QVQLVESGGGLVQAGGSLRLSCAASGRTFFPYAMGWYRQAPGKEREFVAAITWSGGSTTYADSVKGRFTISRDNAKNTVYLQMTSLKPEDTAVYYCNDGRRRSYSYDYWGQGTQVTVSS”, the “polyreactivity (PSR sort gate)” value was “low polyreactivity”.
In the case of “QVQLVESGGGLVQAGGSLRLSCAASGRIFYWYTMGWYRQAPGKERELVASISGSGGSTYYADSVKGRFTISRDNAKNTVYLQMNSLKPEDTAVYYCNKGSRWLRGLDYWGQGTQVTVSS”, the “polyreactivity (PSR sort gate)” value was “high polyreactivity”.
For “QVQLVESGGCLVQAGGSLSLSCAHSGGNFTFYAMVWYTQAPGKERELVATINWSGGSTYYADSVKGRFTISRDNAKITVYLQMNSLKPADTAVYYCNAAWPYKSVEYWGHGTQVTVSS”, the “polyreactivity (PSR sort gate)” value was “low polyreactivity”.
For “QVQLVESGGGLDQAGGSLRLSCPASGSTFLNNAMGRYRQAPGKERELVATITSGGITNYADSVKGRFTISRDNAKNCVYLQMNSLKPEDTAVYYCNADTWGFTYYYWGQGTQVTVSS”, the “polyreactivity (PSR sort gate)” value was “low polyreactivity”.

From the nanobody polyreactivity screen of Harvey et al. (2022)
